In publication PMC4416226 (The FEBS journal, 2014):

Target: T1, His-MyoD (1-320 aa) (UniProt P15172 1-320)
T1 sequence (looked up): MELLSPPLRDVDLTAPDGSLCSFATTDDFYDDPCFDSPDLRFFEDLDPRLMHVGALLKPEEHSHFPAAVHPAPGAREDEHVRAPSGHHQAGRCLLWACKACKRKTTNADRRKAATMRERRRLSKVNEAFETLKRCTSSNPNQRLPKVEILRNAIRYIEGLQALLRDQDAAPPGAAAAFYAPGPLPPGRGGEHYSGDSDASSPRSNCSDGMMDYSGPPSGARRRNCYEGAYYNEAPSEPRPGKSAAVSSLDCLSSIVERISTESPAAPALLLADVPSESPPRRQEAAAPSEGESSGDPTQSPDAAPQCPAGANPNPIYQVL
Assay: far-Western, overlay or dot blot

- binding result: binds
B1: GST-MLP-a (1-194 aa) (natural protein, human, UniProt P50461-1 1-194, looked up)
chain: MPNWGGGAKCGACEKTVYHAEEIQCNGRSFHKTCFHCMACRKALDSTTVAAHESEIYCKVCYGRRYGPKGIGYGQGAGCLSTDTGEHLGLQFQQSPKPARSVTTSNPSKFTAKFGESEKCPRCGKSVYAAEKVMGGGKPWHKTCFRCAICGKSLESTNVTDKDGELYCKVCYAKNFGPTGIGFGGLTQQVEKKE
